Data taken from paper PMC6123492, “Structural and biochemical insights into small RNA 3′ end trimming by Arabidopsis SDN1”.
Residue numbers refer to the chain shown, from its start.

Experiments:
[1] = biological target: T1, SDN1 F356A (Arabidopsis thaliana, UniProt A3KPE8 2-409, F356A); assay: EMSA; no Mg2+; not impaired; EMSA: 50 mM Tris pH 8.0, 100 mM NaCl, 1 mM DTT, no Mg2+, 2 nM RNA, on ice 30 min, 8% native PAGE in 0.5x TBE; NMR: 50 mM Na2HPO4 pH 7.4, 100 mM NaCl, 10% D2O; conditions: protein: recombinant; tags: His-SUMO tag removed; label: 5' 32P; single strand
T1 sequence: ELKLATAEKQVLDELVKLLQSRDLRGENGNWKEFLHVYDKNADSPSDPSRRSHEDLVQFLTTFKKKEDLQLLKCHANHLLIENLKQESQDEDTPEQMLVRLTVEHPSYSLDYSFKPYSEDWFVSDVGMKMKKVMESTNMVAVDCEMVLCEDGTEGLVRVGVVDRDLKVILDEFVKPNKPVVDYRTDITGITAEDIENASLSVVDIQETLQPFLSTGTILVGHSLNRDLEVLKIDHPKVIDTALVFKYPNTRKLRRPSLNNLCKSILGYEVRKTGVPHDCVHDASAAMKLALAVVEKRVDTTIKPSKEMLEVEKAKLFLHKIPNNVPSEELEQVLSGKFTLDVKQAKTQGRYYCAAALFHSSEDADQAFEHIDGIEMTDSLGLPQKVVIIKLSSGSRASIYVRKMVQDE

[2] = biological target: T2, SDN1 S22A (Arabidopsis thaliana, UniProt A3KPE8 2-409, S22A); assay: EMSA; not impaired; EMSA: 50 mM Tris pH 8.0, 100 mM NaCl, 1 mM DTT, no Mg2+, 2 nM RNA, on ice 30 min, 8% native PAGE in 0.5x TBE; NMR: 50 mM Na2HPO4 pH 7.4, 100 mM NaCl, 10% D2O; conditions: protein: recombinant; tags: His-SUMO tag removed; label: 5' 32P; single strand
T2 sequence: T1 sequence with S21A, A355F

[3] = biological target: T3, SDN1 Q21A (Arabidopsis thaliana, UniProt A3KPE8 2-409, Q21A); assay: as above; conditions: protein: recombinant; tags: His-SUMO tag removed; label: 5' 32P; single strand
T3 sequence: T1 sequence with Q20A, A355F

[4] = biological target: T4, SDN1 TEV (Arabidopsis thaliana, UniProt A3KPE8 2-300+=ENLYFQS+301-409, internal_change); assay: UV crosslinking + TEV mapping; RNA on DEDDh (ΔC) fragment; EMSA: 50 mM Tris pH 8.0, 100 mM NaCl, 1 mM DTT, no Mg2+, 2 nM RNA, on ice 30 min, 8% native PAGE in 0.5x TBE; NMR: 50 mM Na2HPO4 pH 7.4, 100 mM NaCl, 10% D2O; conditions: protein: recombinant; tags: His-SUMO tag removed; label: 5' 32P on target strand; unpaired miR166 3' end (T6-type); target 3' overhang 4 nt
T4 sequence: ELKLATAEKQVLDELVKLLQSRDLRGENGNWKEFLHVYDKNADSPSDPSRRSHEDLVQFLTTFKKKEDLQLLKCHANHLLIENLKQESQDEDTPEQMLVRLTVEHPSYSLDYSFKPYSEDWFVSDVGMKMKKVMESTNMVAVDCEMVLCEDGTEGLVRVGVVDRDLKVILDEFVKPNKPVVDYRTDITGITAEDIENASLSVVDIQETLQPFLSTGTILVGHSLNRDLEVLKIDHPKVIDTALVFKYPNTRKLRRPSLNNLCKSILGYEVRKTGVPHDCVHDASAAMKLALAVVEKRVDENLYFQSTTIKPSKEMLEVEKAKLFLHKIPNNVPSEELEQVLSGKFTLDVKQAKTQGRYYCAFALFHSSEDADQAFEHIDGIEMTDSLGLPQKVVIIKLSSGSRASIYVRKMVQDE

[5] = biological target: T4, SDN1 TEV; assay: UV crosslinking + TEV mapping; RNA on RRM fragment; EMSA: 50 mM Tris pH 8.0, 100 mM NaCl, 1 mM DTT, no Mg2+, 2 nM RNA, on ice 30 min, 8% native PAGE in 0.5x TBE; NMR: 50 mM Na2HPO4 pH 7.4, 100 mM NaCl, 10% D2O; conditions: protein: recombinant; tags: His-SUMO tag removed; label: 5' 32P on target strand; unpaired miR166 3' end (T6-type); target 3' overhang 4 nt

UCGGACCAGGCUUCAUCCCCC (ssRNA) [miR166]: binds [1]; binds [2]; binds [3].

B1: miR166:3'-IUU (dsRNA)
RNA 1: UCGGACCAGGCUUCAUCCCCC
RNA 2: GAUUCCCUUGAAGCUUGGUCCGGAUUA
modifications: 5-iodoU at 25,26 of strand 2
B1: binds [4].

B2: miR166:5'-IUU (dsRNA)
RNA 1: UCGGACCAGGCUUCAUCCCCC
RNA 2: GAUUCCCUUGAAGCUUGGUCCGGAUUA
modifications: 5-iodoU at 3,4 of strand 2
B2: binds [5].
